According to patent US9176064B2, “Bisubstrate fluorescent probes for protein kinase CK2” (University of Tartu, priority 2012, dated 2015):
Where a SMILES comes first, the peptide text is derived from it. [ ]: non-standard residue; d: D form. The star is where a group is joined. X1 = O=C(CCCCCCCn1cnc2c(Br)c(Br)c(Br)c(Br)c21)*

Key:
Assay in all cases: Kinase panel residual activity
Assay type in all cases: biochemical
Details in all cases: compound at 1 micromolar
[1] = molecular target: HIPK3 (Homo sapiens, UniProt Q9H422)
Chain of HIPK3 (Q9H422 whole entry, species assumed): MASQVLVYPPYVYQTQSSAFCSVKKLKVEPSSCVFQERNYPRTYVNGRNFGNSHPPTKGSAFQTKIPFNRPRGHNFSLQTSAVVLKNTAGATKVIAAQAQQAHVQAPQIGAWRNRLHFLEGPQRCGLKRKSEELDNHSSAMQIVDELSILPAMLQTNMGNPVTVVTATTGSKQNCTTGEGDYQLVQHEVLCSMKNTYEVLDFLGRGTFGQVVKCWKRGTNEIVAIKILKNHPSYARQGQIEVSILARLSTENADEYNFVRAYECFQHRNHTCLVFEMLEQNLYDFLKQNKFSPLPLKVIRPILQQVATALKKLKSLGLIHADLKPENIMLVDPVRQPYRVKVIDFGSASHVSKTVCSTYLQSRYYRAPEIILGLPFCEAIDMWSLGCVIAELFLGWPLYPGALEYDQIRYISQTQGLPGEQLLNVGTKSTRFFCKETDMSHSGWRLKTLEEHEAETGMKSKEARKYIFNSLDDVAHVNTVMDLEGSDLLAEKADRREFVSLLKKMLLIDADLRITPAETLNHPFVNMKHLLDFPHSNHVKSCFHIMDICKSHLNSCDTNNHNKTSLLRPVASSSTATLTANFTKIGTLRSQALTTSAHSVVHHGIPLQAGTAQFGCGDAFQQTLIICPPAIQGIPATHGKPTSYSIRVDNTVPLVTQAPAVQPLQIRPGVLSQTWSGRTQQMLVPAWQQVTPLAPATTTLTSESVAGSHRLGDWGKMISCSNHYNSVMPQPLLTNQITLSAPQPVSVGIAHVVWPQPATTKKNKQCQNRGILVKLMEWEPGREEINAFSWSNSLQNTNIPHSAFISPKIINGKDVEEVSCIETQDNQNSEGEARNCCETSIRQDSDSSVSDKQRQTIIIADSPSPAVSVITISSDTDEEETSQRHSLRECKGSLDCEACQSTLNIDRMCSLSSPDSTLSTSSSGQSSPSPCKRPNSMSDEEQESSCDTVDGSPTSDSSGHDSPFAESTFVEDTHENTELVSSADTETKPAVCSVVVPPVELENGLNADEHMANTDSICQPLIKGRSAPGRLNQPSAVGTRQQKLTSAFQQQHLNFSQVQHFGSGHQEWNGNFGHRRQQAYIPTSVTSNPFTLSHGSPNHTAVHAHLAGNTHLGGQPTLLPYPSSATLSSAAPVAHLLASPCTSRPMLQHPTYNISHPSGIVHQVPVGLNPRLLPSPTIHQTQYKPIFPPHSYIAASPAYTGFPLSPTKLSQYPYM

[2] = molecular target: T1, TBK1 (Homo sapiens, UniProt Q9UHD2)
T1 sequence (Q9UHD2 1-729): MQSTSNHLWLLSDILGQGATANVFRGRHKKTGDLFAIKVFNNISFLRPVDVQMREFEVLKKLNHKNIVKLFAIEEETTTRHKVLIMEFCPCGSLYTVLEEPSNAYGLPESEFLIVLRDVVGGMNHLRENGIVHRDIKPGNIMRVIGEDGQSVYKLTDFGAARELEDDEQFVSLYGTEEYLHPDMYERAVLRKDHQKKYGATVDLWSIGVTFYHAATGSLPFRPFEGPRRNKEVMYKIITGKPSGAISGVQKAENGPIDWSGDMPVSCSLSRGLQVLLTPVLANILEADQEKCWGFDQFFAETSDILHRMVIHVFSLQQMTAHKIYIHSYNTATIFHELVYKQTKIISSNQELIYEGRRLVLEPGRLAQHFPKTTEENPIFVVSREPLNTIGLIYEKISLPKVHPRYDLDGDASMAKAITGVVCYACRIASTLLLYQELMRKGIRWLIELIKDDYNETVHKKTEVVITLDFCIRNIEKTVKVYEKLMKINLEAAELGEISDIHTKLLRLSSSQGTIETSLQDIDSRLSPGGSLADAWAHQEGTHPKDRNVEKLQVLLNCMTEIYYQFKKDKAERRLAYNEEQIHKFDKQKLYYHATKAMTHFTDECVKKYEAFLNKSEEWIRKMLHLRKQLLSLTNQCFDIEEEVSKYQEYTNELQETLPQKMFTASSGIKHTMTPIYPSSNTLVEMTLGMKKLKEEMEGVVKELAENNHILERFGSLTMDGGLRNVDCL

[3] = molecular target: T2, PKCz (Homo sapiens, UniProt Q05513)
T2 sequence (Q05513 1-592): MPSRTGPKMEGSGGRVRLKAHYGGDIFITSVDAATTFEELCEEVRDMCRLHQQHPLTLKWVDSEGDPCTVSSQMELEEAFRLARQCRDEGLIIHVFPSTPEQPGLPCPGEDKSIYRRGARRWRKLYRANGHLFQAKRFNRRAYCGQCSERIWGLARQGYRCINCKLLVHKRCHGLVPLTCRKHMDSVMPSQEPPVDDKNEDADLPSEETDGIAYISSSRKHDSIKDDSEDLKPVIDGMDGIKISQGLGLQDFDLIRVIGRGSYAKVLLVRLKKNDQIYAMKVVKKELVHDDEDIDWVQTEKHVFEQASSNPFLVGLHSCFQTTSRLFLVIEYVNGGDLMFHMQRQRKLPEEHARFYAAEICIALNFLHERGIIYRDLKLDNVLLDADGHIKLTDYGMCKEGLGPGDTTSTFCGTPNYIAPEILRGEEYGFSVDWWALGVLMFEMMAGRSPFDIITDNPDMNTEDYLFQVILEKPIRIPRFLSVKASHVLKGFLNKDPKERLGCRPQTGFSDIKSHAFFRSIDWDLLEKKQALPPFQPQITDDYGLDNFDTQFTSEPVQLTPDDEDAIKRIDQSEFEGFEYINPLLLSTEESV

[4] = molecular target: TrkA (Homo sapiens, UniProt P04629)
Chain of TrkA (P04629 33-796, species assumed): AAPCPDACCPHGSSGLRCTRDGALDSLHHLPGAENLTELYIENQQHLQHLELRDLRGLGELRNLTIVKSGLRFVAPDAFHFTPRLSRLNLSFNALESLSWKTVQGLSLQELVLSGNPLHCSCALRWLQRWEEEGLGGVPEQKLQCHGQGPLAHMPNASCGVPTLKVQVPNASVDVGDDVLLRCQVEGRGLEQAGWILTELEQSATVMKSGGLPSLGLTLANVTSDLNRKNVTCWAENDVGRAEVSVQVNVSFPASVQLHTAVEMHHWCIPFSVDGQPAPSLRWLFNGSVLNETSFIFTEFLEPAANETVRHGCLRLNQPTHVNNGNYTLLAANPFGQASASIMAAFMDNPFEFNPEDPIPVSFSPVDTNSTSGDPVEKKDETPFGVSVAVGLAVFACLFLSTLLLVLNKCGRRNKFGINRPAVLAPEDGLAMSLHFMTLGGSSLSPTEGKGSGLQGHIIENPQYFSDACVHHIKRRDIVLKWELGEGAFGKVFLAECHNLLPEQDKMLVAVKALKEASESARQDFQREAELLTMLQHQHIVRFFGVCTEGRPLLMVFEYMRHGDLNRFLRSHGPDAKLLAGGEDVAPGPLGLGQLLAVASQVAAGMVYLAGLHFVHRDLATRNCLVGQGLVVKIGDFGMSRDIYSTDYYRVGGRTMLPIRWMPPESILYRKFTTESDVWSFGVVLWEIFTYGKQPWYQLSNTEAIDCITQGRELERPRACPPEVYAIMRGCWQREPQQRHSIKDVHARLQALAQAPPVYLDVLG

[5] = molecular target: SRPK1 (Homo sapiens, UniProt Q96SB4)
[6] = molecular target: T3, PDK1 (Homo sapiens, UniProt O15530)
T3 sequence (O15530 1-556): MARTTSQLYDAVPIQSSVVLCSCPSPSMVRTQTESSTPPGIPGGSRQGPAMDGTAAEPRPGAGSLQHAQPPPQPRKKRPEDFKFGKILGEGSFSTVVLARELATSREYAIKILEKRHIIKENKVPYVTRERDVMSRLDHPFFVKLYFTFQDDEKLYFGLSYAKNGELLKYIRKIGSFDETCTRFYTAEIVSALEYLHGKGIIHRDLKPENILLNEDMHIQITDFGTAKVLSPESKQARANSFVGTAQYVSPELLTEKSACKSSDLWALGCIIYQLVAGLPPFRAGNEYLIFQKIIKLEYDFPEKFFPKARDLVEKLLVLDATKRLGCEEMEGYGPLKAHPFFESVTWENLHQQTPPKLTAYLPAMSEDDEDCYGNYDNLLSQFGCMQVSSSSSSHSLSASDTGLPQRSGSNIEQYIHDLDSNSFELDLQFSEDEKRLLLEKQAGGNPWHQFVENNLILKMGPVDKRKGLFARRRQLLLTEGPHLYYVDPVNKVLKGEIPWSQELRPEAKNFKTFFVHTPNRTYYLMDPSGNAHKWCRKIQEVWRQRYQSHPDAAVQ

[7] = molecular target: MINK1 (Homo sapiens, UniProt Q8N4C8)
Chain of MINK1 (Q8N4C8 whole entry, species assumed): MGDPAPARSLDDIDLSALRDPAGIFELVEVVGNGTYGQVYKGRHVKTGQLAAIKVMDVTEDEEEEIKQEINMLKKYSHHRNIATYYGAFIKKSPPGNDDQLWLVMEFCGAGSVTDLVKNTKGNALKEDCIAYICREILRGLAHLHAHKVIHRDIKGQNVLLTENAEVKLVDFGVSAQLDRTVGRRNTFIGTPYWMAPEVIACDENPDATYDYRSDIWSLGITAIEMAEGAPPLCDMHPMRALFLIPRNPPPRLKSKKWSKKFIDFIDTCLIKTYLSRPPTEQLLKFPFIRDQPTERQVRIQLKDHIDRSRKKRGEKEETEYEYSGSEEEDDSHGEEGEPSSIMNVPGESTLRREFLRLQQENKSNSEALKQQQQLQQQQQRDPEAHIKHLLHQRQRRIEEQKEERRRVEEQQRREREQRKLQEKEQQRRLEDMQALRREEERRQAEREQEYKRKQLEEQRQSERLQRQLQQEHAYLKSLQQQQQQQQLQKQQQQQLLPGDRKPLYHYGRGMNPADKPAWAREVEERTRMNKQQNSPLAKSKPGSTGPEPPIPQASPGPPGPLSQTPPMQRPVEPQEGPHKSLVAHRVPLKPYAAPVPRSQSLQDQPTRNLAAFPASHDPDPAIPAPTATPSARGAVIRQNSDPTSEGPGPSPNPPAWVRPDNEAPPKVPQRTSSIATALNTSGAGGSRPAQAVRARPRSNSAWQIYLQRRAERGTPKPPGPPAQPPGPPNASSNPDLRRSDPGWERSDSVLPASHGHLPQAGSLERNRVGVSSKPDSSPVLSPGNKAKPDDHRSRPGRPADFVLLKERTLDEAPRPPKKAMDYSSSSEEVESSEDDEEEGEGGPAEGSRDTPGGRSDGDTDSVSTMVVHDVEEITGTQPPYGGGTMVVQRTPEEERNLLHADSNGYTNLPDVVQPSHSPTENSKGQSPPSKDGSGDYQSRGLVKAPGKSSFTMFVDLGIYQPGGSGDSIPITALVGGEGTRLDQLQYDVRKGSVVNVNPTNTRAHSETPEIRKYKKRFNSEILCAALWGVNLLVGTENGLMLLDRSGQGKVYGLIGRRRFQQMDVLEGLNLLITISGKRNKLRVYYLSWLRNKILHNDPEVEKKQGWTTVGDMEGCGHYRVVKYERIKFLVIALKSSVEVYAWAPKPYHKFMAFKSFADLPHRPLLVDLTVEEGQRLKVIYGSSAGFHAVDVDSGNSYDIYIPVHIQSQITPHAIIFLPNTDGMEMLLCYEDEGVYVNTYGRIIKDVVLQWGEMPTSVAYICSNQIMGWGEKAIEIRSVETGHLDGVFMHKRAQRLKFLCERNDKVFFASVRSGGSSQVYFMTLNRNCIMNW

[8] = molecular target: JNK2 (Homo sapiens, UniProt P45984)
Chain of JNK2 (P45984 whole entry, species assumed): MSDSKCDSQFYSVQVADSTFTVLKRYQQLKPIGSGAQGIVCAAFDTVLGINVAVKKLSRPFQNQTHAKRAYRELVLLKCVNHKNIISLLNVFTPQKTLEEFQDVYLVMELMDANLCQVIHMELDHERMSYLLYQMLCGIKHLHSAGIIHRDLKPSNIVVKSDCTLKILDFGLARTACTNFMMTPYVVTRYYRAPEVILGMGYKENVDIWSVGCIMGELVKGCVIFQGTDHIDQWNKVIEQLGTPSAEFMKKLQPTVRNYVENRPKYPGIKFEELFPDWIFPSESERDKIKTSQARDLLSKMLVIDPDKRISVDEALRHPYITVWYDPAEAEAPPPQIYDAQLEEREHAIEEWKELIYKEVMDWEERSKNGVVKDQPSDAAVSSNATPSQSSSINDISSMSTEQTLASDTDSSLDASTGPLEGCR

[9] = molecular target: MNK1 (Homo sapiens, UniProt Q9BUB5)
Chain of MNK1 (Q9BUB5 whole entry, species assumed): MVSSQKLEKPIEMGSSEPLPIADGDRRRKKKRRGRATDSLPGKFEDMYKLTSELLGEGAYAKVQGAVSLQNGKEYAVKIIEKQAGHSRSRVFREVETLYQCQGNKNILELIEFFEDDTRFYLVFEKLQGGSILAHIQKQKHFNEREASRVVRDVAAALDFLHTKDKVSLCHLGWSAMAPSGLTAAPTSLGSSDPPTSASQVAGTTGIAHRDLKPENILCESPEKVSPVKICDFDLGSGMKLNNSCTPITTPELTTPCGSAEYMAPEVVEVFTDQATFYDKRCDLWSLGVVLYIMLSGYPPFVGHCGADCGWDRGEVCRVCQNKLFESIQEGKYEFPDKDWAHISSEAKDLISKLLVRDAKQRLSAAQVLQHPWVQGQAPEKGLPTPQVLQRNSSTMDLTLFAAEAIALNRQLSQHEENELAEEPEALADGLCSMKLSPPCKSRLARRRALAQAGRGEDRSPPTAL

[10] = molecular target: IRAK1 (Homo sapiens, UniProt P51617)
Chain of IRAK1 (P51617 whole entry, species assumed): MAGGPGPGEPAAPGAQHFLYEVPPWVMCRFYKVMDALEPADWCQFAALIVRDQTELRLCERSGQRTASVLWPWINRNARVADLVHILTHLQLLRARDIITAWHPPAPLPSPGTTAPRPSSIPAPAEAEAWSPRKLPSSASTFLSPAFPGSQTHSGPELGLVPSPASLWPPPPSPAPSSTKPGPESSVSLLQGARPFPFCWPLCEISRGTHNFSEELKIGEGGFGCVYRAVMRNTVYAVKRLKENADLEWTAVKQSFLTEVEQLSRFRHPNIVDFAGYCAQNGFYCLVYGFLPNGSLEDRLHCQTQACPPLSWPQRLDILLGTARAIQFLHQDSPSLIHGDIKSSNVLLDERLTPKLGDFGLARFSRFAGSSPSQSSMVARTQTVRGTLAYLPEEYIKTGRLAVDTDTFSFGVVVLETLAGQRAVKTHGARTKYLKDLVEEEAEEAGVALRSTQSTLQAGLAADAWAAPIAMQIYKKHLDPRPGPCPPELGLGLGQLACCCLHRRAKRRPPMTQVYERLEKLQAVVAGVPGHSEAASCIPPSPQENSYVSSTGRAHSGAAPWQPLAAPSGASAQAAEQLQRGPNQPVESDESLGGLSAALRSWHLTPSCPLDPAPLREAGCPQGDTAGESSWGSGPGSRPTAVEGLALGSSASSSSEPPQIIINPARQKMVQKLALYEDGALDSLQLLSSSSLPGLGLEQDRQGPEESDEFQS

NCCCC[C@H](NC(=O)[C@H](CC(=O)O)NC(=O)[C@H](CC(=O)O)NC(=O)[C@H](CC(=O)O)NC(=O)[C@H](CC(=O)O)NC(=O)[C@H](CC(=O)O)NC(=O)[C@@H](CC(=O)O)NC(=O)CCCCCCCn1cnc2c(Br)c(Br)c(Br)c(Br)c21)C(=O)O [TBBI-OcA-(D-Asp)-(L-Asp)5-(L-Lys)-OH] (X1-[dD]DDDDDK-OH) was tested, and the remaining activity at 1 µM [1] was 75%, the remaining activity at 1 µM [2] was 93% and the remaining activity at 1 µM [3] was 105%. It also gave a remaining activity at 1 µM [4] of 111%, a remaining activity at 1 µM [5] of 61% and a remaining activity at 1 µM [6] of 86%. For the same molecule, the remaining activity at 1 µM [7] was 139%, the remaining activity at 1 µM [8] was 105% and the remaining activity at 1 µM [9] was 99%. It also gave a remaining activity at 1 µM [10] of 89%.
